# Reference: the supplement of paper PMC10065799, “High-throughput profiling of sequence recognition by tyrosine kinases and SH2 domains using bacterial peptide display” (eLife, 2023)
# Columns and labels:
# Grb2 SH2 = Grb2 SH2 (UniProt P62993); experiment: SH2 binding enrichment of the phosphorylated peptide, bacterial display (enrichment ratio); higher = better substrate or ligand; peptides without Tyr show the background
# SHP2-C SH2 = experiment: as above
# c-Src SH2 = experiment: as above
# Fes = Fes (UniProt P07332); experiment: phosphorylation enrichment, bacterial display (enrichment ratio); higher = better substrate or ligand; peptides without Tyr show the background
# Jak2 = Jak2 (UniProt O60674); experiment: as above
# Jak2, sequence (O60674 whole entry, looked up): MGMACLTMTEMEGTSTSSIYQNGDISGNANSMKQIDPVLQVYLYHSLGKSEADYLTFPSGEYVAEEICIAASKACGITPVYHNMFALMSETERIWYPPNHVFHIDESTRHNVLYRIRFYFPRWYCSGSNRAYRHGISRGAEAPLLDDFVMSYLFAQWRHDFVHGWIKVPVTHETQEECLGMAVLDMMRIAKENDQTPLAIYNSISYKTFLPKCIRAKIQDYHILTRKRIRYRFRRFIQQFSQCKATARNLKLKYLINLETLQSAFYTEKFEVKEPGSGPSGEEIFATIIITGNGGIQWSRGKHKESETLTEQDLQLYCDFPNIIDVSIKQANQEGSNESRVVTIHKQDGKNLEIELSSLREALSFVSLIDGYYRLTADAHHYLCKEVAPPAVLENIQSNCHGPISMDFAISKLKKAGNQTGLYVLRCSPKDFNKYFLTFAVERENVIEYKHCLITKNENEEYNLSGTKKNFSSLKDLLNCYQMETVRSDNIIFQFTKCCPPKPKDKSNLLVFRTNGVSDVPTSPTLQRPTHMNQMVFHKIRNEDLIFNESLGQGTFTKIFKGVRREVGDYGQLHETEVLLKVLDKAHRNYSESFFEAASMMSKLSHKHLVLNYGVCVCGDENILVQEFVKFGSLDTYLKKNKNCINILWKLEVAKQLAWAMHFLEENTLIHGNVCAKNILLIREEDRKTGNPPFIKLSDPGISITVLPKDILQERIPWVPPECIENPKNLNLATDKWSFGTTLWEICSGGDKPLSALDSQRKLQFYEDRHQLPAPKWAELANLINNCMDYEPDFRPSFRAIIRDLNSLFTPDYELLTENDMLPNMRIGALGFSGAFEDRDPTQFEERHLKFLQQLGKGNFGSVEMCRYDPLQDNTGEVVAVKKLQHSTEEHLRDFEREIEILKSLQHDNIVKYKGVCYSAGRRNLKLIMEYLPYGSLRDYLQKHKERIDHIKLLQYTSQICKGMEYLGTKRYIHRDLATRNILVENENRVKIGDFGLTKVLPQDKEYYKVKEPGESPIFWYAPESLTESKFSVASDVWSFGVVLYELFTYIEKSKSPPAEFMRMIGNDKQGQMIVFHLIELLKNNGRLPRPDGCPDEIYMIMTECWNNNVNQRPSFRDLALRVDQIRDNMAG
# Fyn = Fyn (UniProt P06241); experiment: as above
# Fyn, sequence (P06241 whole entry, looked up): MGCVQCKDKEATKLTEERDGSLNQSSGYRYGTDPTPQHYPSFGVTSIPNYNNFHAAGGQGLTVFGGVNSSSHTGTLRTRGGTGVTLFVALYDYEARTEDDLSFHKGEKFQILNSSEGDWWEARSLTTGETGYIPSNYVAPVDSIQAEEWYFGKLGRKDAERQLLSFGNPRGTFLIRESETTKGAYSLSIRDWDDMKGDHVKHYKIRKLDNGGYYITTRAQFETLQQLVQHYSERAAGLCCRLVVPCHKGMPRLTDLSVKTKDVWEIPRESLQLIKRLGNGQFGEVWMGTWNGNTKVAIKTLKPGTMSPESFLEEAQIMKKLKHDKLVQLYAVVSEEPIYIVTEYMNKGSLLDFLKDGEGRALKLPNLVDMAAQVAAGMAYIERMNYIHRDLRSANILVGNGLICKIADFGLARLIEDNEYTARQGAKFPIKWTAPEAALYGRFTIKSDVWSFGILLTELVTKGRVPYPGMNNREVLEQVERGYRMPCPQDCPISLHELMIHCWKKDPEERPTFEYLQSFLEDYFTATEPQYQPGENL
# Fer (mouse) = experiment: as above
# FGFR3 = FGFR3 (UniProt P22607); experiment: as above
# FGFR3, sequence (P22607 whole entry, looked up): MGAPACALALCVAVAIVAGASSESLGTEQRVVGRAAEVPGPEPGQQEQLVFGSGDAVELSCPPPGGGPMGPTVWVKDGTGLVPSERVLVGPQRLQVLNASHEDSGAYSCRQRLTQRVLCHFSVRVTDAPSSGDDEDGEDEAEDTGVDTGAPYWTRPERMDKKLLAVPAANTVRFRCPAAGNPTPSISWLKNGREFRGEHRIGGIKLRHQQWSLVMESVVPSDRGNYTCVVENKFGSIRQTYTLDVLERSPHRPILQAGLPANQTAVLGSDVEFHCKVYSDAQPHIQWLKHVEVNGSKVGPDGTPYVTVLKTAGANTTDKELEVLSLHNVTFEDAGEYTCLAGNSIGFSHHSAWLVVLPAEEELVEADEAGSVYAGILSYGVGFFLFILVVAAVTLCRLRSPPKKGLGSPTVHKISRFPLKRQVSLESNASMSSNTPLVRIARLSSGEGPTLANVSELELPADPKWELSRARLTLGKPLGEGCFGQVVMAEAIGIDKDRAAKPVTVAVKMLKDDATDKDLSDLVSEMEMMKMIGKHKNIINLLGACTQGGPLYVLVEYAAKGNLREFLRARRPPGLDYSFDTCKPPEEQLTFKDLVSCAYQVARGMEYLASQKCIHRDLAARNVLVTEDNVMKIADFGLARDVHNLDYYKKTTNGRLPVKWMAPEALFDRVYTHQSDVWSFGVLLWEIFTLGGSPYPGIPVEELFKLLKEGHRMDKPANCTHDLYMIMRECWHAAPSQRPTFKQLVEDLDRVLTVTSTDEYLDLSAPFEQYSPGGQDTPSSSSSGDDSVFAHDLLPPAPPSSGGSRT
# FGFR1 = FGFR1 (UniProt P11362); experiment: as above
# FGFR1, sequence (P11362 whole entry, looked up): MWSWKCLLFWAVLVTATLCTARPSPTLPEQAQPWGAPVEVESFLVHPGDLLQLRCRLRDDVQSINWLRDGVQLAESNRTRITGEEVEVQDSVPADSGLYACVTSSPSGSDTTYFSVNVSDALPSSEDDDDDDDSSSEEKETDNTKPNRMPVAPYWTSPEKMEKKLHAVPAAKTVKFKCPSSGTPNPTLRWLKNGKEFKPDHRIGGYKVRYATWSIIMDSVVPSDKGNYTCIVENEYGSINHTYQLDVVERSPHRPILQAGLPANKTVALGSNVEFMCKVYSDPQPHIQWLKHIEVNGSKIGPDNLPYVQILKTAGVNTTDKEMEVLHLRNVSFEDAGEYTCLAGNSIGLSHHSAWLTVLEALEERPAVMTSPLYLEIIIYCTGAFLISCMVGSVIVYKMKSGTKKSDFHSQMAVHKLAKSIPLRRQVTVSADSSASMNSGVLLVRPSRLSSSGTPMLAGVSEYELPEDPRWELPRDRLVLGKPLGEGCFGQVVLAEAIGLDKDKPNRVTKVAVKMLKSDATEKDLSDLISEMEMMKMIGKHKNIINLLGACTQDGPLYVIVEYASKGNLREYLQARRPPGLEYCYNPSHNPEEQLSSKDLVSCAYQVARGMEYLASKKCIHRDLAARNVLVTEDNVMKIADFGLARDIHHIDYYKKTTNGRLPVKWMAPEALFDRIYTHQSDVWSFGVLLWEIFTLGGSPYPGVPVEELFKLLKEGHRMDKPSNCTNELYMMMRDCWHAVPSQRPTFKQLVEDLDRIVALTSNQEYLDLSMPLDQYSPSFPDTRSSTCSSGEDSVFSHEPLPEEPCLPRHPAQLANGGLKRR
# Hck = Hck (UniProt P08631); experiment: as above
# Hck, sequence (P08631 whole entry, looked up): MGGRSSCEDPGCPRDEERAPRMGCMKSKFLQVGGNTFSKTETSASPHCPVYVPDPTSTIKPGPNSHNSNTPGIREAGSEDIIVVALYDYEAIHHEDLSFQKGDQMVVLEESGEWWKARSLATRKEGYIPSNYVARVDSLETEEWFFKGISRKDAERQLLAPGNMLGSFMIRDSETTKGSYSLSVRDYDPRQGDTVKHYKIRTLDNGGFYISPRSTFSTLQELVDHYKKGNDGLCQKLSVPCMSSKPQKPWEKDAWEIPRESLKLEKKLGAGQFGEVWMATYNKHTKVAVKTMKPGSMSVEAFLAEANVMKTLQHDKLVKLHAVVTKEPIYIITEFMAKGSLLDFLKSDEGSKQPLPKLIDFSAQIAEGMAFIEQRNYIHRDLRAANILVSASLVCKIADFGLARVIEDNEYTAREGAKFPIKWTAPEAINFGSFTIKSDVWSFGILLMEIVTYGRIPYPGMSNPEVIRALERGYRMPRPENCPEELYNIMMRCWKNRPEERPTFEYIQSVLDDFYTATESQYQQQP
# MERTK = MERTK (UniProt Q12866); experiment: as above
# MERTK, sequence (Q12866 whole entry, looked up): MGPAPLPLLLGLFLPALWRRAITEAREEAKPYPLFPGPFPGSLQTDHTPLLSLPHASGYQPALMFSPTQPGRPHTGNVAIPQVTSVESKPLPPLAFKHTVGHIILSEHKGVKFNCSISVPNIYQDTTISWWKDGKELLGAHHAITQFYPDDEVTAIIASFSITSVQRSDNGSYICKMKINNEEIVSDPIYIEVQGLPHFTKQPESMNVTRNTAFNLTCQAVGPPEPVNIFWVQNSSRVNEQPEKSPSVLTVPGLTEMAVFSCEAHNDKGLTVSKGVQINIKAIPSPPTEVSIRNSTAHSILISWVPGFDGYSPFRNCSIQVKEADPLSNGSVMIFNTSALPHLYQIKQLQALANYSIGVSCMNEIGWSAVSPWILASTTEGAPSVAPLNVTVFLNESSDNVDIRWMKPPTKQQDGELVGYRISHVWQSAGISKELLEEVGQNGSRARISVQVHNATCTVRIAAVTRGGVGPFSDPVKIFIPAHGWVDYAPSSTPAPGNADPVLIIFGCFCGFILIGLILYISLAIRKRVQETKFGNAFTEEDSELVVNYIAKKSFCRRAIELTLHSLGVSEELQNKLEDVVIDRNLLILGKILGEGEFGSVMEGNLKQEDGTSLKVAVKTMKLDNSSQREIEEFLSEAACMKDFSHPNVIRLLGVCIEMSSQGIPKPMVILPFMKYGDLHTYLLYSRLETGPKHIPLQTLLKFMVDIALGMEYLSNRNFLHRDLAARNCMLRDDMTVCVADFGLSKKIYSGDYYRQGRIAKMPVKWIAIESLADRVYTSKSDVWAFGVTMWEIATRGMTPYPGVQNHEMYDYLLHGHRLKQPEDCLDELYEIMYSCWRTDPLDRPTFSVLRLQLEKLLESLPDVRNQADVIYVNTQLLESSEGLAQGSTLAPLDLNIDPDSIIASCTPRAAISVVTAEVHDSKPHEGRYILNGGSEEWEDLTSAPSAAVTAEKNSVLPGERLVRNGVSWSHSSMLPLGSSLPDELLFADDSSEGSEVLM
# c-Src = experiment: as above
# EPHB1 = EPHB1 (UniProt P54762); experiment: as above
# AncSZ = experiment: as above
# EPHB2 = EPHB2 (UniProt P29323); experiment: as above
# c-Abl (mouse) = experiment: as above
# 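For SH2 binding enrichment of the phosphorylated peptide, bacterial display in this document: peptide library displayed on the E. coli surface as eCPX fusions, selected cells deep-sequenced, score is each peptide's frequency after selection divided by its frequency in the input.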
# 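For phosphorylation enrichment, bacterial display in this document: 11-residue human phosphosite peptides and single-mutation variants displayed on the E. coli surface, counted by deep sequencing, each peptide's frequency after selection divided by its frequency in the unselected input library; frequency after pTyr selection over input frequency; kinase dosed for 20-30% of maximal phosphorylation in three min.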
# Grb2 SH2, sequence (P62993 whole entry, looked up): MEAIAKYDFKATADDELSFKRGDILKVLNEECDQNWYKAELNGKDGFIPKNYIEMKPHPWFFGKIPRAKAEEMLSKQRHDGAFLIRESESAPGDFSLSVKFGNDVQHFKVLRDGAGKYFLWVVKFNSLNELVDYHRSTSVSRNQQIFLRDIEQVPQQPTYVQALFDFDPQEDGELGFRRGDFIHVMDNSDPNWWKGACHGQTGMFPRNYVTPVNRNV
sequence,measurement,setting,value
GVLDIYGFEIL [MYO1A_Y382],SH2 binding enrichment,Grb2 SH2,0.793
same,SH2 binding enrichment,SHP2-C SH2,0.574
same,SH2 binding enrichment,c-Src SH2,0.343
same,phosphorylation enrichment,Fes,1.14
same,phosphorylation enrichment,Jak2,0.978
same,phosphorylation enrichment,Fyn,2.92
same,phosphorylation enrichment,Fer (mouse),0.694
same,phosphorylation enrichment,FGFR3,0.787
same,phosphorylation enrichment,FGFR1,0.579
same,phosphorylation enrichment,Hck,1.59
same,phosphorylation enrichment,MERTK,0.41
same,phosphorylation enrichment,c-Src,1.76
same,phosphorylation enrichment,EPHB1,0.903
same,phosphorylation enrichment,AncSZ,1.14
same,phosphorylation enrichment,EPHB2,0.541
same,phosphorylation enrichment,c-Abl (mouse),0.695
HEEDNYIELIP [NWD2_Y566],SH2 binding enrichment,Grb2 SH2,0.53
same,SH2 binding enrichment,SHP2-C SH2,0.793
same,SH2 binding enrichment,c-Src SH2,0.458
same,phosphorylation enrichment,Fes,2.29
same,phosphorylation enrichment,Jak2,2.21
same,phosphorylation enrichment,Fyn,0.905
same,phosphorylation enrichment,Fer (mouse),1.27
same,phosphorylation enrichment,FGFR3,5.2
same,phosphorylation enrichment,FGFR1,6.02
same,phosphorylation enrichment,Hck,1.02
same,phosphorylation enrichment,MERTK,1.33
same,phosphorylation enrichment,c-Src,1.3
same,phosphorylation enrichment,EPHB1,2.98
same,phosphorylation enrichment,AncSZ,3.19
same,phosphorylation enrichment,EPHB2,1.91
same,phosphorylation enrichment,c-Abl (mouse),1.89
HFEDGYPGGSD [CTNND1_Y221_YF],SH2 binding enrichment,Grb2 SH2,0.851
same,SH2 binding enrichment,SHP2-C SH2,0.731
same,SH2 binding enrichment,c-Src SH2,0.397
same,phosphorylation enrichment,Fes,1.45
same,phosphorylation enrichment,Jak2,0.955
same,phosphorylation enrichment,Fyn,0.74
same,phosphorylation enrichment,Fer (mouse),0.5
same,phosphorylation enrichment,FGFR3,0.806
same,phosphorylation enrichment,FGFR1,0.668
same,phosphorylation enrichment,Hck,0.756
same,phosphorylation enrichment,MERTK,0.598
same,phosphorylation enrichment,c-Src,0.514
same,phosphorylation enrichment,EPHB1,0.656
same,phosphorylation enrichment,AncSZ,1.15
same,phosphorylation enrichment,EPHB2,0.675
same,phosphorylation enrichment,c-Abl (mouse),0.485
HGQVNYEEFVQ [CALM2_Y139_D134H],SH2 binding enrichment,Grb2 SH2,0.694
same,SH2 binding enrichment,SHP2-C SH2,0.651
same,SH2 binding enrichment,c-Src SH2,0.828
same,phosphorylation enrichment,Fes,1.92
same,phosphorylation enrichment,Jak2,1.24
same,phosphorylation enrichment,Fyn,1.28
same,phosphorylation enrichment,Fer (mouse),1.26
same,phosphorylation enrichment,FGFR3,1.02
same,phosphorylation enrichment,FGFR1,0.795
same,phosphorylation enrichment,Hck,1.37
same,phosphorylation enrichment,MERTK,0.92
same,phosphorylation enrichment,c-Src,0.803
same,phosphorylation enrichment,EPHB1,6.37
same,phosphorylation enrichment,AncSZ,1.89
same,phosphorylation enrichment,EPHB2,5.8
same,phosphorylation enrichment,c-Abl (mouse),0.911
HGVSSYDTVIS [LDLR_Y465],SH2 binding enrichment,Grb2 SH2,0.936
same,SH2 binding enrichment,SHP2-C SH2,0.795
same,SH2 binding enrichment,c-Src SH2,6.43
same,phosphorylation enrichment,Fes,1.15
same,phosphorylation enrichment,Jak2,0.911
same,phosphorylation enrichment,Fyn,0.818
same,phosphorylation enrichment,Fer (mouse),0.638
same,phosphorylation enrichment,FGFR3,0.706
same,phosphorylation enrichment,FGFR1,0.801
same,phosphorylation enrichment,Hck,0.846
same,phosphorylation enrichment,MERTK,0.811
same,phosphorylation enrichment,c-Src,0.441
same,phosphorylation enrichment,EPHB1,0.515
same,phosphorylation enrichment,AncSZ,1.19
same,phosphorylation enrichment,EPHB2,0.865
same,phosphorylation enrichment,c-Abl (mouse),0.779
HHLSTYTKMLF [CHST8_Y251_R247H],SH2 binding enrichment,Grb2 SH2,1.11
same,SH2 binding enrichment,SHP2-C SH2,3.88
same,SH2 binding enrichment,c-Src SH2,2.54
same,phosphorylation enrichment,Fes,1.32
same,phosphorylation enrichment,Jak2,0.743
same,phosphorylation enrichment,Fyn,0.989
same,phosphorylation enrichment,Fer (mouse),0.504
same,phosphorylation enrichment,FGFR3,1.05
same,phosphorylation enrichment,FGFR1,0.714
same,phosphorylation enrichment,Hck,0.814
same,phosphorylation enrichment,MERTK,0.541
same,phosphorylation enrichment,c-Src,0.71
same,phosphorylation enrichment,EPHB1,0.956
same,phosphorylation enrichment,AncSZ,1.39
same,phosphorylation enrichment,EPHB2,0.902
same,phosphorylation enrichment,c-Abl (mouse),0.792
HLLRIYFDITD [MMP27_Y307_W304L_YF],SH2 binding enrichment,Grb2 SH2,0.85
same,SH2 binding enrichment,SHP2-C SH2,0.464
same,SH2 binding enrichment,c-Src SH2,0.536
same,phosphorylation enrichment,Fes,2.46
same,phosphorylation enrichment,Jak2,2.05
same,phosphorylation enrichment,Fyn,0.491
same,phosphorylation enrichment,Fer (mouse),0.846
same,phosphorylation enrichment,FGFR3,1.68
same,phosphorylation enrichment,FGFR1,0.874
same,phosphorylation enrichment,Hck,0.733
same,phosphorylation enrichment,MERTK,0.568
same,phosphorylation enrichment,c-Src,0.791
same,phosphorylation enrichment,EPHB1,1.53
same,phosphorylation enrichment,AncSZ,1.99
same,phosphorylation enrichment,EPHB2,0.891
same,phosphorylation enrichment,c-Abl (mouse),1.87
HLPAGYIIPLQ [GAA_Y822_R819P],SH2 binding enrichment,Grb2 SH2,0.895
same,SH2 binding enrichment,SHP2-C SH2,11.3
same,SH2 binding enrichment,c-Src SH2,0.987
same,phosphorylation enrichment,Fes,0.764
same,phosphorylation enrichment,Jak2,0.608
same,phosphorylation enrichment,Fyn,0.388
same,phosphorylation enrichment,Fer (mouse),0.297
same,phosphorylation enrichment,FGFR3,0.444
same,phosphorylation enrichment,FGFR1,0.443
same,phosphorylation enrichment,Hck,0.491
same,phosphorylation enrichment,MERTK,0.542
same,phosphorylation enrichment,c-Src,0.492
same,phosphorylation enrichment,EPHB1,0.383
same,phosphorylation enrichment,AncSZ,0.638
same,phosphorylation enrichment,EPHB2,0.28
same,phosphorylation enrichment,c-Abl (mouse),0.363
HLQDEYDFKCK [STAT1_Y170_D165H],SH2 binding enrichment,Grb2 SH2,0.797
same,SH2 binding enrichment,SHP2-C SH2,0.48
same,SH2 binding enrichment,c-Src SH2,0.423
same,phosphorylation enrichment,Fes,1.59
same,phosphorylation enrichment,Jak2,1.5
same,phosphorylation enrichment,Fyn,0.631
same,phosphorylation enrichment,Fer (mouse),0.471
same,phosphorylation enrichment,FGFR3,0.924
same,phosphorylation enrichment,FGFR1,0.581
same,phosphorylation enrichment,Hck,0.589
same,phosphorylation enrichment,MERTK,0.884
same,phosphorylation enrichment,c-Src,0.871
same,phosphorylation enrichment,EPHB1,0.621
same,phosphorylation enrichment,AncSZ,1.33
same,phosphorylation enrichment,EPHB2,0.585
same,phosphorylation enrichment,c-Abl (mouse),0.776
HNLNFYKKTTN [FGFR3_Y648_D646N_YF],SH2 binding enrichment,Grb2 SH2,0.722
same,SH2 binding enrichment,SHP2-C SH2,0.632
same,SH2 binding enrichment,c-Src SH2,0.428
same,phosphorylation enrichment,Fes,0.92
same,phosphorylation enrichment,Jak2,0.832
same,phosphorylation enrichment,Fyn,0.975
same,phosphorylation enrichment,Fer (mouse),0.806
same,phosphorylation enrichment,FGFR3,2.99
same,phosphorylation enrichment,FGFR1,0.735
same,phosphorylation enrichment,Hck,0.572
same,phosphorylation enrichment,MERTK,0.605
same,phosphorylation enrichment,c-Src,0.565
same,phosphorylation enrichment,EPHB1,0.761
same,phosphorylation enrichment,AncSZ,1.42
same,phosphorylation enrichment,EPHB2,0.553
same,phosphorylation enrichment,c-Abl (mouse),0.642
HQKKPYCHTHN [NRAP_Y53_A56T],SH2 binding enrichment,Grb2 SH2,1.45
same,SH2 binding enrichment,SHP2-C SH2,1.55
same,SH2 binding enrichment,c-Src SH2,1.08
same,phosphorylation enrichment,Fes,2.33
same,phosphorylation enrichment,Jak2,3.44
same,phosphorylation enrichment,Fyn,1.04
same,phosphorylation enrichment,Fer (mouse),1.34
same,phosphorylation enrichment,FGFR3,3.53
same,phosphorylation enrichment,FGFR1,1.27
same,phosphorylation enrichment,Hck,1.13
same,phosphorylation enrichment,MERTK,0.627
same,phosphorylation enrichment,c-Src,0.794
same,phosphorylation enrichment,EPHB1,1.7
same,phosphorylation enrichment,AncSZ,1.88
same,phosphorylation enrichment,EPHB2,0.854
same,phosphorylation enrichment,c-Abl (mouse),1.21
HRLSTYTKMLF [CHST8_Y251],SH2 binding enrichment,Grb2 SH2,1.7
same,SH2 binding enrichment,SHP2-C SH2,1.87
same,SH2 binding enrichment,c-Src SH2,1.98
same,phosphorylation enrichment,Fes,1.52
same,phosphorylation enrichment,Jak2,1.22
same,phosphorylation enrichment,Fyn,0.443
same,phosphorylation enrichment,Fer (mouse),0.689
same,phosphorylation enrichment,FGFR3,0.74
same,phosphorylation enrichment,FGFR1,0.428
same,phosphorylation enrichment,Hck,0.744
same,phosphorylation enrichment,MERTK,0.707
same,phosphorylation enrichment,c-Src,0.585
same,phosphorylation enrichment,EPHB1,0.723
same,phosphorylation enrichment,AncSZ,1.18
same,phosphorylation enrichment,EPHB2,0.655
same,phosphorylation enrichment,c-Abl (mouse),1.02
HRNNNYEPNLF [BRCA2_Y57_K53R],SH2 binding enrichment,Grb2 SH2,0.674
same,SH2 binding enrichment,SHP2-C SH2,0.651
same,SH2 binding enrichment,c-Src SH2,0.668
same,phosphorylation enrichment,Fes,0.75
same,phosphorylation enrichment,Jak2,1.06
same,phosphorylation enrichment,Fyn,0.583
same,phosphorylation enrichment,Fer (mouse),0.552
same,phosphorylation enrichment,FGFR3,0.662
same,phosphorylation enrichment,FGFR1,0.54
same,phosphorylation enrichment,Hck,0.465
same,phosphorylation enrichment,MERTK,0.617
same,phosphorylation enrichment,c-Src,0.419
same,phosphorylation enrichment,EPHB1,1.07
same,phosphorylation enrichment,AncSZ,0.684
same,phosphorylation enrichment,EPHB2,0.858
same,phosphorylation enrichment,c-Abl (mouse),0.509
HSGLAYTMERS [GLUD1_Y512],SH2 binding enrichment,Grb2 SH2,0.698
same,SH2 binding enrichment,SHP2-C SH2,0.733
same,SH2 binding enrichment,c-Src SH2,0.314
same,phosphorylation enrichment,Fes,1.26
same,phosphorylation enrichment,Jak2,0.985
same,phosphorylation enrichment,Fyn,0.685
same,phosphorylation enrichment,Fer (mouse),0.561
same,phosphorylation enrichment,FGFR3,0.543
same,phosphorylation enrichment,FGFR1,0.403
same,phosphorylation enrichment,Hck,0.383
same,phosphorylation enrichment,MERTK,0.521
same,phosphorylation enrichment,c-Src,0.763
same,phosphorylation enrichment,EPHB1,0.897
same,phosphorylation enrichment,AncSZ,0.933
same,phosphorylation enrichment,EPHB2,0.495
same,phosphorylation enrichment,c-Abl (mouse),0.56
HSYNSYTYPRL [PAK5_Y316],SH2 binding enrichment,Grb2 SH2,1.04
same,SH2 binding enrichment,SHP2-C SH2,1.12
same,SH2 binding enrichment,c-Src SH2,9.16
same,phosphorylation enrichment,Fes,0.682
same,phosphorylation enrichment,Jak2,0.716
same,phosphorylation enrichment,Fyn,0.449
same,phosphorylation enrichment,Fer (mouse),0.554
same,phosphorylation enrichment,FGFR3,0.532
same,phosphorylation enrichment,FGFR1,0.658
same,phosphorylation enrichment,Hck,0.485
same,phosphorylation enrichment,MERTK,1.78
same,phosphorylation enrichment,c-Src,0.652
same,phosphorylation enrichment,EPHB1,0.472
same,phosphorylation enrichment,AncSZ,0.776
same,phosphorylation enrichment,EPHB2,0.508
same,phosphorylation enrichment,c-Abl (mouse),0.553
HTKKNYGNSSV [HDX_Y197_A193T],SH2 binding enrichment,Grb2 SH2,0.907
same,SH2 binding enrichment,SHP2-C SH2,0.647
same,SH2 binding enrichment,c-Src SH2,0.532
same,phosphorylation enrichment,Fes,0.656
same,phosphorylation enrichment,Jak2,0.433
same,phosphorylation enrichment,Fyn,0.337
same,phosphorylation enrichment,Fer (mouse),0.393
same,phosphorylation enrichment,FGFR3,0.515
same,phosphorylation enrichment,FGFR1,0.252
same,phosphorylation enrichment,Hck,0.462
same,phosphorylation enrichment,MERTK,0.442
same,phosphorylation enrichment,c-Src,0.472
same,phosphorylation enrichment,EPHB1,0.181
same,phosphorylation enrichment,AncSZ,0.443
same,phosphorylation enrichment,EPHB2,0.403
same,phosphorylation enrichment,c-Abl (mouse),0.331
HVLEEYKPKQG [SAXO2_Y37_P34L],SH2 binding enrichment,Grb2 SH2,0.762
same,SH2 binding enrichment,SHP2-C SH2,0.938
same,SH2 binding enrichment,c-Src SH2,0.47
same,phosphorylation enrichment,Fes,0.834
same,phosphorylation enrichment,Jak2,1.36
same,phosphorylation enrichment,Fyn,1.19
same,phosphorylation enrichment,Fer (mouse),0.552
same,phosphorylation enrichment,FGFR3,1.39
same,phosphorylation enrichment,FGFR1,0.656
same,phosphorylation enrichment,Hck,0.646
same,phosphorylation enrichment,MERTK,0.57
same,phosphorylation enrichment,c-Src,0.424
same,phosphorylation enrichment,EPHB1,0.487
same,phosphorylation enrichment,AncSZ,0.5
same,phosphorylation enrichment,EPHB2,0.683
same,phosphorylation enrichment,c-Abl (mouse),0.698
